# Measured values from PMC10916864 (Molecular Biology of the Cell, 2024).
# T1: His-mNeon-tagged EBP50 PDZ1-PDZ2 fragment (human, UniProt O14745-1 1-298)
# T1 sequence (looked up): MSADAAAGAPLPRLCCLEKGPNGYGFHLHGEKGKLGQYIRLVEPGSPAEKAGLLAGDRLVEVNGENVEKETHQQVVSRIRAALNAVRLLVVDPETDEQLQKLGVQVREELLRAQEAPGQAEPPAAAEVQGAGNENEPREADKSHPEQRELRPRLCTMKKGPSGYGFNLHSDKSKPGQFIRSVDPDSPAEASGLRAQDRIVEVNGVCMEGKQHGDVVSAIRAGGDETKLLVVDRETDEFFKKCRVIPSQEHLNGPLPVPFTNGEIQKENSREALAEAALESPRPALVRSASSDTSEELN
# B1: GST-CDHR5 CD (GST fusion of the cytoplasmic tail of CDHR5) (domain or fragment, human, UniProt Q9HBB8-1 697-845, looked up)
# chain: RLKCCCGKAPEPQPQGFDNQAFLPDHKANWAPVPSPTHDPKPAEAPMPAEPAPPGPASPGGAPEPPAAARAGGSPTAVRSILTKERRPEGGYKAVWFGEDIGTEADVVVLNAPTLDVDGASDSGSGDEGEGAGRGGGPYDAPGGDDSYI
# Target: T1, His-mNeon-tagged EBP50 PDZ1-PDZ2 …
# Assay: pull-down
binder,measurement,value
B1,binding result,binds
